Data as given in the Immune Epitope Database (IEDB).

Experiments:
[1] = target: HLA-C*12:03; experiment: IEDB peptide-MHC binding, purified MHC/direct/fluorescence; filed as Kd, often an IC50 or EC50 that approximates it; ≥ and ≤ were set here for values at or beyond the usual limits of such assays
[2] = target: HLA-C*03:03; experiment: as above; conditions: source organism: Rickettsia rickettsii str. 'Sheila Smith'
[3] = target: HLA-C*08:02; experiment: as above
[4] = target: HLA-B*27:03; experiment: IEDB peptide-MHC binding, purified MHC/competitive/fluorescence; filed as Kd, often an IC50 or EC50 that approximates it; ≥ and ≤ were set here for values at or beyond the usual limits of such assays; conditions: source organism: Mus musculus
[5] = target: HLA-B*46:01; experiment: as above; conditions: source organism: Mus musculus
[6] = target: HLA-B*51:01; experiment: as above; conditions: source organism: Mus musculus
[7] = target: HLA-B*39:01; experiment: as above; conditions: source organism: Mus musculus
[8] = target: HLA-A*02:01; experiment: as above
[9] = target: HLA-A*69:01; experiment: as above
[10] = target: HLA-B*44:02; experiment: IEDB peptide-MHC binding, purified MHC/direct/fluorescence; filed as Kd, often an IC50 or EC50 that approximates it; ≥ and ≤ were set here for values at or beyond the usual limits of such assays; conditions: source organism: Cryptosporidium hominis
[11] = target: HLA-B*18:01; experiment: as above; conditions: source organism: Cryptosporidium hominis
[12] = target: HLA-B*58:01; experiment: as above
[13] = target: HLA-B*57:01; experiment: as above; conditions: source organism: Cryptosporidium hominis
[14] = target: HLA-A*31:01; experiment: as above
[15] = target: HLA-B*48:01; experiment: as above
[16] = target: HLA-A*03:01; experiment: as above; conditions: source organism: Cryptosporidium hominis
[17] = target: HLA-B*40:01; experiment: as above
[18] = target: HLA-B*07:02; experiment: as above; conditions: source organism: Cryptosporidium hominis
[19] = target: HLA-B*08:03; experiment: as above; conditions: source organism: Cryptosporidium parvum Iowa II
[20] = target: HLA-A*01:01; experiment: as above
[21] = target: HLA-A*33:01; experiment: IEDB peptide-MHC binding, purified MHC/competitive/radioactivity; filed as Kd, often an IC50 or EC50 that approximates it; ≥ and ≤ were set here for values at or beyond the usual limits of such assays; conditions: source organism: Vaccinia virus WR
[22] = target: HLA-A*68:01; experiment: as above; conditions: source organism: Vaccinia virus WR
[23] = target: HLA-A*31:01; experiment: as above; conditions: source organism: Vaccinia virus WR
[24] = target: HLA-A*03:01; experiment: as above; conditions: source organism: Vaccinia virus WR
[25] = target: HLA-A*11:01; experiment: as above; conditions: source organism: Vaccinia virus WR
[26] = target: HLA-A*02:06; experiment: IEDB peptide-MHC binding, purified MHC/competitive/fluorescence; filed as Kd, often an IC50 or EC50 that approximates it; ≥ and ≤ were set here for values at or beyond the usual limits of such assays; conditions: source organism: Human immunodeficiency virus 1
[27] = target: HLA-A*02:12; experiment: as above; conditions: source organism: Human immunodeficiency virus 1
[28] = target: HLA-A*02:03; experiment: as above; conditions: source organism: Human immunodeficiency virus 1
[29] = target: HLA-A*02:16; experiment: as above; conditions: source organism: Human immunodeficiency virus 1
[30] = target: HLA-A*02:19; experiment: as above; conditions: source organism: Human immunodeficiency virus 1
[31] = target: HLA-B*08:01; experiment: IEDB peptide-MHC binding, purified MHC/direct/fluorescence; filed as Kd, often an IC50 or EC50 that approximates it; ≥ and ≤ were set here for values at or beyond the usual limits of such assays; conditions: source organism: Variola virus
[32] = target: HLA-B*39:01; experiment: as above; conditions: source organism: Variola virus
[33] = target: HLA-A*02:01; experiment: as above; conditions: source organism: Camelpox virus M-96
[34] = target: HLA-B*27:05; experiment: as above; conditions: source organism: Camelpox virus M-96
[35] = target: HLA-B*15:09; experiment: as above; conditions: source organism: Variola virus
[36] = target: HLA-A*69:01; experiment: as above; conditions: source organism: Camelpox virus M-96
[37] = target: HLA-A*26:01; experiment: as above; conditions: source organism: Variola virus
[38] = target: HLA-B*15:17; experiment: IEDB peptide-MHC binding, purified MHC/competitive/fluorescence; filed as Kd, often an IC50 or EC50 that approximates it; ≥ and ≤ were set here for values at or beyond the usual limits of such assays; conditions: source organism: Vaccinia virus Copenhagen
[39] = target: HLA-B*57:01; experiment: as above; conditions: source organism: Vaccinia virus Copenhagen
[40] = target: HLA-A*03:01; experiment: as above; conditions: source organism: Vaccinia virus Copenhagen
[41] = target: HLA-A*11:01; experiment: as above; conditions: source organism: Vaccinia virus Copenhagen
[42] = target: HLA-B*15:01; experiment: as above; conditions: source organism: Vaccinia virus Copenhagen
[43] = source organism: Rickettsia rickettsii str. 'Sheila Smith'
[44] = source organism: Cryptosporidium hominis
[45] = source organism: Camelpox virus M-96
[46] = source organism: Human immunodeficiency virus 1

**Q.** What does the source list for FMPESSYLL?
**A.** Kd [1, 43]: 0.707 µM; Kd [2]: 0.443 µM; Kd [3, 43]: ≥ 20 µM

**Q.** YTFCGTIEY was tested. Which Kd ([1]; source organism: Mus musculus) did it give?
**A.** The Kd was ≤ 0.001 µM.

**Q.** What about the Kd ([3]; source organism: Mus musculus) of the same sequence?
**A.** The Kd was ≥ 20 µM.

**Q.** What about the Kd [4] of the same sequence?
**A.** The Kd was ≥ 20 µM.

**Q.** And the Kd [5]?
**A.** Its Kd is 0.0114 µM.

**Q.** What about the Kd [6] of the same sequence?
**A.** The Kd was ≥ 20 µM.

**Q.** And the Kd [7]?
**A.** Its Kd is ≥ 20 µM.

**Q.** What about the Kd ([8]; source organism: Mus musculus) of the same sequence?
**A.** The Kd was ≥ 20 µM.

**Q.** What about the Kd ([9]; source organism: Mus musculus) of the same sequence?
**A.** The Kd was ≥ 20 µM.

**Q.** For FMKSRVYSI, which Kd [10] is on record?
**A.** Its Kd is ≥ 20 µM.

**Q.** What about the Kd [11] of the same sequence?
**A.** The Kd was ≥ 20 µM.

**Q.** What about the Kd [12, 44] of the same sequence?
**A.** The Kd was ≥ 20 µM.

**Q.** And the Kd [13]?
**A.** Its Kd is ≥ 20 µM.

**Q.** And the Kd [14, 44]?
**A.** The Kd was ≥ 20 µM.

**Q.** And the Kd [15, 44]?
**A.** Its Kd is ≥ 20 µM.

**Q.** What about the Kd [16] of the same sequence?
**A.** Its Kd is ≥ 20 µM.

**Q.** And the Kd [17, 44]?
**A.** The Kd was ≥ 20 µM.

**Q.** And the Kd [18]?
**A.** The Kd was ≥ 20 µM.

**Q.** What about the Kd [19] of the same sequence?
**A.** The Kd was 0.029 µM.

**Q.** And the Kd [20, 44]?
**A.** The Kd was ≥ 20 µM.

**Q.** For FTDISMSLY, which Kd ([3]; source organism: Variola virus) is on record?
**A.** The Kd was 0.019 µM.

**Q.** What about the Kd [20, 45] of the same sequence?
**A.** The Kd was ≤ 0.001 µM.

**Q.** And the Kd [21]?
**A.** Its Kd is ≥ 77.7 µM.

**Q.** What about the Kd [22] of the same sequence?
**A.** The Kd was 0.546 µM.

**Q.** And the Kd [23]?
**A.** Its Kd is 10.7 µM.

**Q.** And the Kd [24]?
**A.** The Kd was ≥ 32.2 µM.

**Q.** What about the Kd [25] of the same sequence?
**A.** Its Kd is 2.53 µM.

**Q.** Which results are given for SLVKHHMYV?
**A.** Kd [26]: ≤ 0.0001 µM; Kd [8, 46]: 0.00733 µM; Kd [9, 46]: 0.145 µM; Kd [27]: 0.00935 µM; Kd [28]: 0.00188 µM; Kd [29]: 0.000572 µM; Kd [30]: 0.0173 µM

**Q.** For MTRVTNNVY, which Kd [31] is on record?
**A.** Its Kd is ≥ 20 µM.

**Q.** What about the Kd ([12]; source organism: Variola virus) of the same sequence?
**A.** Its Kd is 0.635 µM.

**Q.** What about the Kd [32] of the same sequence?
**A.** Its Kd is ≥ 20 µM.

**Q.** And the Kd [33]?
**A.** The Kd was ≥ 20 µM.

**Q.** And the Kd [34]?
**A.** The Kd was ≥ 20 µM.

**Q.** What about the Kd [35] of the same sequence?
**A.** Its Kd is ≥ 20 µM.

**Q.** And the Kd [14, 45]?
**A.** Its Kd is ≥ 20 µM.

**Q.** What about the Kd [15, 45] of the same sequence?
**A.** Its Kd is ≥ 20 µM.

**Q.** And the Kd [36]?
**A.** Its Kd is ≥ 20 µM.

**Q.** And the Kd [37]?
**A.** Its Kd is 0.237 µM.

**Q.** What about the Kd [17, 45] of the same sequence?
**A.** The Kd was ≥ 20 µM.

**Q.** What about the Kd [20, 45] of the same sequence?
**A.** The Kd was 2.59 µM.

**Q.** What about the Kd [38] of the same sequence?
**A.** The Kd was ≤ 0.001 µM.

**Q.** And the Kd [39]?
**A.** Its Kd is 0.0986 µM.

**Q.** What about the Kd [40] of the same sequence?
**A.** Its Kd is ≥ 20 µM.

**Q.** And the Kd [41]?
**A.** Its Kd is ≥ 20 µM.

**Q.** And the Kd [42]?
**A.** Its Kd is 0.125 µM.
